Test results as given in US20070254831A1 (published 2007).
Where two headings read alike, the source gives them in different places. Each block holds one binder with its values, some of them ahead of it. Bridge positions count the residues as written; N and C are the ends. Square brackets hold non-standard residues; d marks the D form. Ends that are not written are not given here. NMeL = CN[C@@H](CC(C)C)C(=O)O; Pen = CC(C)(S)[C@H](N)C(=O)O; NMeA = CN[C@@H](C)C(=O)O; Ava = NCCCCC(=O)O; Sar = CNCC(=O)O

Key:
soluble human FcRn [1] = target: T1, soluble human FcRn (human, UniProt P55899 24-297; P61769 21-119, biotinylated (Sulfo-NHS-LC-Biotin) in the ELISA; amine-coupled to CM5 chip in SPR); assay: ELISA, competitor human IgG
T1 construct: also called shFcRn; biotinylated shFcRn
Description: (§1) The wells were coated with 100 μl/well of 1 μg/ml biotinylated-shFcRn in Buffer A. The plate was sealed and incubated at 37° C. for 2 hours. Afterwards, the plate washed with 200 μl/well of Buffer B (Buffer B: 100 mM MES pH 6, 150 mM NaCl, 0.5% BSA IgG-free (Jackson ImmunoResearch, West Grove, Pa.), 0.05% Tween-20). […] To allow for mixing, the plate was rocked for 2 minutes, sealed and incubated at 37° C. for 2 hours. […] The plate was covered, incubated for 30 minutes at room temperature and washed 4 times with 200 μl/well of ice-cold buffer B. SureBlue TMB substrate solution (100 μl/well, KPL, Gaithersburg, Md.) was added and the plate was allowed to incubate at room temperature until color developed, which took 5 to 10 minutes. Once color developed, 100 μl/well of TMB stop solution (KPL, Gaithersburg, Md.) was added and the absorbance was measured at 450 nm. The data was plotted as absorbance vs. peptide concentration to derive the inhibitory concentration 50% (IC₅₀) values.

soluble human FcRn [2] = target: T1, soluble human FcRn; assay: SPR, pH 7.4
Description: (§2) The following steps were performed to cross-link soluble human or cynomolgus FcRn to the dextran surface of a CM5 sensor chip (Biacore AB, Uppsala, Sweden) by an amine coupling reaction involving 1-ethyl-(3-dimethylaminopropyl)-carbodiimide hydrochloride (EDC) (Biacore AB, Uppsala, Sweden) and N-hydroxysuccinimide (NHS) (Biacore AB, Uppsala, Sweden) as recommended by Biacore (BIAapplications Handbook, version AB, section 4.2, Biacore AB, Uppsala, Sweden). […] Residual sites on the FcRn flow cell were blocked with 1 M ethanolamine hydrochloride pH 8.5 (Biacore AB, Uppsala, Sweden). A control flow cell was blocked with ethanolamine for reference subtraction. For analysis of the monomeric peptides, FcRn was coated to a final density of 4000-5000 response units (RU). For analysis of the peptide dimers, FcRn was coated to a density of 2000-2500 RU. All SPR measurements were performed using a BIACORE 3000 Instrument (Biacore AB Uppsala, Sweden). For measurements done at either pH 6 or pH 7.4, experiments were performed in 50 mM phosphate, 100 mM sodium chloride, 0.01% surfactant P20 (Biacore AB, Uppsala, Sweden).
(§3) Ten, 2-fold dilutions of the peptide were injected over the FcRn-CM5 chip at a rate of 20 μl/min for 2 min. The peptide was dissociated from the chip for 2.5 minutes with buffer. […] Sensorgrams were generated and analyzed using BiaEval software version 3.1 (Biacore AB, Uppsala, Sweden). […]

soluble human FcRn [3] = target: T1, soluble human FcRn; assay: SPR, pH 6
Description: as §2, §3

soluble human FcRn [4] = target: T1, soluble human FcRn; assay: ELISA, competitor human IgG; remark: listed apart in the source
Description: as §1

soluble human FcRn [5] = target: T1, soluble human FcRn; assay: ELISA, competitor human IgG; remark: listed apart in the source
Description: as §1

soluble human FcRn [6] = target: T1, soluble human FcRn; assay: SPR, pH 7.4; remark: listed apart in the source
Description: as §2
(§4) Ten, 2-fold dilutions of the peptide were injected over the FcRn-CM5 chip at a rate of 20 μl/min for 2 min. The peptide was dissociated from the chip for 2.5 minutes with buffer. Any remaining peptide was removed from the chip with a 30 second injection of HBS-P buffer (Biacore AB, Uppsala, Sweden) at a rate of 30 μl/min. Sensorgrams were generated and analyzed using BiaEval software version 3.1 (Biacore AB, Uppsala, Sweden). The equilibrium RU observed for each injection was plotted against concentration. The equilibrium KD values were derived by analysis of the plots using the steady state affinity model included in the BiaEval software.

soluble human FcRn [7] = target: T1, soluble human FcRn; assay: ELISA, competitor human IgG; remark: listed apart in the source
Description: as §1

soluble human FcRn [8] = target: T1, soluble human FcRn; assay: SPR, pH 7.4; remark: listed apart in the source
Description: as §2, §3

soluble human FcRn [9] = target: T1, soluble human FcRn; assay: SPR, pH 6; remark: listed apart in the source
Description: as §2, §3

soluble human FcRn [10] = target: T1, soluble human FcRn; assay: ELISA, competitor human IgG; remark: listed apart in the source
Description: as §1

soluble human FcRn [11] = target: T1, soluble human FcRn; assay: ELISA, competitor human IgG; remark: listed apart in the source
Description: as §1

soluble human FcRn [12] = target: T1, soluble human FcRn; assay: SPR, pH 6; remark: listed apart in the source
Description: as §2, §4

soluble human FcRn [13] = target: T1, soluble human FcRn; assay: SPR, pH 6; remark: listed apart in the source
Description: as §2, §4

soluble human FcRn [14] = target: T1, soluble human FcRn; assay: ELISA, competitor human IgG; remark: listed apart in the source
Description: as §1

soluble human FcRn [15] = target: T1, soluble human FcRn; assay: SPR, pH 7.4; remark: listed apart in the source
Description: as §2, §3

soluble human FcRn [16] = target: T1, soluble human FcRn; assay: SPR, pH 6; remark: listed apart in the source
Description: as §2, §4

soluble human FcRn [17] = target: T1, soluble human FcRn; assay: SPR, pH 7.4; remark: listed apart in the source
Description: as §2, §3

soluble human FcRn [18] = target: T1, soluble human FcRn; assay: ELISA, competitor human IgG; remark: listed apart in the source
Description: as §1

soluble human FcRn [19] = target: T1, soluble human FcRn; assay: SPR, pH 6; remark: listed apart in the source
Description: as §2, §3

soluble human FcRn [20] = target: T1, soluble human FcRn; assay: ELISA, competitor human IgG; remark: listed apart in the source
Description: as §1

IC50 (soluble human FcRn [1]): > 125 µM
B1: Peptide No. 35 (peptide)
peptide: QRFCTGHF[Ava]LYPCNGP-NH2
modifications: disulfide 4-13; N-terminus assumed
SMILES: CC(C)C[C@@H]1NC(=O)CCCCNC(=O)[C@H](Cc2ccccc2)NC(=O)[C@H](Cc2c[nH]cn2)NC(=O)CNC(=O)[C@H]([C@@H](C)O)NC(=O)[C@@H](NC(=O)[C@H](Cc2ccccc2)NC(=O)[C@H](CCCNC(=N)N)NC(=O)[C@@H](N)CCC(N)=O)CSSC[C@@H](C(=O)N[C@@H](CC(N)=O)C(=O)NCC(=O)N2CCC[C@H]2C(N)=O)NC(=O)[C@@H]2CCCN2C(=O)[C@H](Cc2ccc(O)cc2)NC1=O

Kd (soluble human FcRn [2]): 0.12 µM
Kd (soluble human FcRn [3]): 0.006 µM
IC50 (soluble human FcRn [4]): 0.97 µM
B2: Peptide No. 122 (peptide)
peptide: QRFDTGHFGGLYPKNGP
modifications: also: bromoacetylated peptide joined to a SATP-derivatized peptide (dimer), further groups not given here

IC50 (soluble human FcRn [5]): 37 µM
Kd (soluble human FcRn [6]): 9 µM
IC50 (soluble human FcRn [7]): 37 µM
B3: Peptide No. 236 (peptide)
peptide: RFVTGHFG[Sar][NMeL]YPA-NH2
modifications: N-terminus assumed
SMILES: CC(C)C[C@@H](C(=O)N[C@@H](Cc1ccc(O)cc1)C(=O)N1CCC[C@H]1C(=O)N[C@@H](C)C(N)=O)N(C)C(=O)CN(C)C(=O)CNC(=O)[C@H](Cc1ccccc1)NC(=O)[C@H](Cc1c[nH]cn1)NC(=O)CNC(=O)[C@@H](NC(=O)[C@@H](NC(=O)[C@H](Cc1ccccc1)NC(=O)[C@@H](N)CCCNC(=N)N)C(C)C)[C@@H](C)O

Kd (soluble human FcRn [2]): 0.13 µM
Kd (soluble human FcRn [3]): 0.006 µM
IC50 (soluble human FcRn [4]): 0.76 µM
B4: Peptide No. 100 (peptide)
peptide: QRFDTGHFGGLYPKNGP
modifications: also: N-termini joined through a bis-thiol linker (bromoacetylated peptide), bridge as drawn, places not given here

Kd (soluble human FcRn [8]): 184 µM
IC50 (soluble human FcRn [1]): 57 µM
Binder: QRFCTGHFG[dA]LYPCNGP-NH2 (disulfide 4-14 (inferred)) [Peptide No. 23]

Kd (soluble human FcRn [9]): 22 µM
IC50 (soluble human FcRn [1]): 69 µM
Binder: QRFCTGHF[dA][dA]LYPCNGP-NH2 (disulfide 4-14 (inferred)) [Peptide No. 24]

IC50 (soluble human FcRn [10]): 4.9 µM
B5: Peptide No. 194 (peptide)
peptide: QRFXTGHFGXYPCNGP
modifications: Pen at 4; X at 10 = D,L-Friedinger's lactam (dipeptide mimetic for Gly-Leu); disulfide; C-terminal amide

IC50 (soluble human FcRn [11]): 81 µM
Kd (soluble human FcRn [12]): 4.8 µM
Binder: QRFXTGHFGGLYPENGP (Dab at 4; side-chain lactam bridge Dab 4-Glu 14; C-terminal amide) [Peptide No. 72]

Kd (soluble human FcRn [13]): 1 µM
IC50 (soluble human FcRn [14]): 5.5 µM
B6: Peptide No. 213 (peptide)
peptide: QRF[Pen][NMeA]GHFGGLYPCNGP-NH2
modifications: disulfide 4-14; N-terminus assumed
SMILES: CC(C)C[C@@H]1NC(=O)CNC(=O)CNC(=O)[C@H](Cc2ccccc2)NC(=O)[C@H](Cc2c[nH]cn2)NC(=O)CNC(=O)[C@H](C)N(C)C(=O)[C@@H](NC(=O)[C@H](Cc2ccccc2)NC(=O)[C@H](CCCNC(=N)N)NC(=O)[C@@H](N)CCC(N)=O)C(C)(C)SSC[C@@H](C(=O)N[C@@H](CC(N)=O)C(=O)NCC(=O)N2CCC[C@H]2C(N)=O)NC(=O)[C@@H]2CCCN2C(=O)[C@H](Cc2ccc(O)cc2)NC1=O

Kd (soluble human FcRn [12]): 8.4 µM
Kd (soluble human FcRn [15]): 45 µM
Binder: QRFXTGHFGGLYPDNGP (Dab at 4; side-chain lactam bridge Dab 4-Asp 14; C-terminal amide) [Peptide No. 81]

Kd (soluble human FcRn [16]): 5.8 µM
IC50 (soluble human FcRn [5]): 52 µM
Kd (soluble human FcRn [6]): 96 µM
B7: Peptide No. 177 (peptide)
peptide: QRFVTGHFG[dP]WYPANGP-NH2
modifications: N-terminus assumed
SMILES: CC(C)[C@H](NC(=O)[C@H](Cc1ccccc1)NC(=O)[C@H](CCCNC(=N)N)NC(=O)[C@@H](N)CCC(N)=O)C(=O)N[C@H](C(=O)NCC(=O)N[C@@H](Cc1c[nH]cn1)C(=O)N[C@@H](Cc1ccccc1)C(=O)NCC(=O)N1CCC[C@@H]1C(=O)N[C@@H](Cc1c[nH]c2ccccc12)C(=O)N[C@@H](Cc1ccc(O)cc1)C(=O)N1CCC[C@H]1C(=O)N[C@@H](C)C(=O)N[C@@H](CC(N)=O)C(=O)NCC(=O)N1CCC[C@H]1C(N)=O)[C@@H](C)O

Kd (soluble human FcRn [12]): 2.1 µM
B8: Peptide No. 105 (peptide)
peptide: QRFDTGHFG[dA]LYPKNGP-NH2
modifications: lactam 4-14; N-terminus assumed
SMILES: CC(C)C[C@@H]1NC(=O)[C@@H](C)NC(=O)CNC(=O)[C@H](Cc2ccccc2)NC(=O)[C@H](Cc2c[nH]cn2)NC(=O)CNC(=O)[C@H]([C@@H](C)O)NC(=O)[C@@H](NC(=O)[C@H](Cc2ccccc2)NC(=O)[C@H](CCCNC(=N)N)NC(=O)[C@@H](N)CCC(N)=O)CC(=O)NCCCC[C@@H](C(=O)N[C@@H](CC(N)=O)C(=O)NCC(=O)N2CCC[C@H]2C(N)=O)NC(=O)[C@@H]2CCCN2C(=O)[C@H](Cc2ccc(O)cc2)NC1=O

Kd (soluble human FcRn [17]): 24 µM
IC50 (soluble human FcRn [18]): 26 µM
Binder: QRFXTGHFGGLXPCNGP (Pen at 4; 4-fluoro-Phe at 12; disulfide; C-terminal amide) [Peptide No. 140]

Kd (soluble human FcRn [19]): 0.14 µM
IC50 (soluble human FcRn [20]): 1.5 µM
Binder: RFXTGHFGPLYPC (Pen at 3; D-Pro at 9; disulfide; C-terminal amide) [Peptide No. 142]

IC50 (soluble human FcRn [10]): 19 µM
B9: Peptide No. 216 (peptide)
peptide: QRFXTGHFGXYPCNGP
modifications: Pen at 4; X at 10 = L,L-Friedinger's lactam (dipeptide mimetic for Gly-Leu); disulfide; C-terminal amide

IC50 (soluble human FcRn [11]): 60 µM
Kd (soluble human FcRn [15]): 52 µM
B10: Peptide No. 80 (peptide)
peptide: QRFKTGHFGGLYPDNGP-NH2
modifications: lactam 4-14; N-terminus assumed
SMILES: CC(C)C[C@@H]1NC(=O)CNC(=O)CNC(=O)[C@H](Cc2ccccc2)NC(=O)[C@H](Cc2c[nH]cn2)NC(=O)CNC(=O)[C@H]([C@@H](C)O)NC(=O)[C@@H](NC(=O)[C@H](Cc2ccccc2)NC(=O)[C@H](CCCNC(=N)N)NC(=O)[C@@H](N)CCC(N)=O)CCCCNC(=O)C[C@@H](C(=O)N[C@@H](CC(N)=O)C(=O)NCC(=O)N2CCC[C@H]2C(N)=O)NC(=O)[C@@H]2CCCN2C(=O)[C@H](Cc2ccc(O)cc2)NC1=O
